In patent publication US20220154138A1, “METHOD OF PRODUCING PLACENTA-LIKE ORGANOID, PLACENTA-LIKE ORGANOID, AND PRODUCTION OR TEST KIT” (FUJIFILM Corporation, priority 2020, published 2022):

Assays:
iPS cells [1] = assay: Three-dimensional suspension (spinner flask) culture of iPS cells with BMP4, hCG by GONASTICK W; assay type: cell-based, human; details: for hCG production: Example 1, spinner flask
Experimental: In GONASTICK W, about 0.5 to 1 mL of the culture supernatant was sampled, and a test strip was soaked therein. After the soaking was completed, the determination surface of the test strip was placed to face upward and allowed to stand until the culture supernatant passed through the determination window and reached the reaction end window. […] The detection sensitivity of the present examination reagent is 25 IU/L, and a blue control line corresponding to an hCG concentration of 1,000 IU/L is printed in advance on the determination window, which can be visually compared with the determination line.
In a case where a line equal to or more blue-colored than the control line was visually observed on the determination line, it was judged as positive (+).
In a case where the line was not visually observed on the determination line, it was determined to be negative (−).
In a case where a line that was less blue-colored than the control line but was visible was visually observed on the determination line, it was determined to be (+/−).
30 mL of an iPS cell medium (StemFit (registered trade name) AK02N: Ajinomoto Co., Inc.) was dispensed into a 30 mL volume spinner flask (ABLE Corporation), and then iPS cells (1.6×10^7 cells/mL) were seeded. BMP4 was not added at the start of culture, but 30 μL of a solution containing 50 μg/mL BMP4 (R&D Systems Inc.) was added on the 4th day of culture so that the final concentration of BMP4 in the medium was to be 50 ng/mL. In a case where BMP4 was added to Example 2 and subsequent Examples, the same concentration was used. After the start of culture, the addition of BMP4 was continued until the 18th day of culture while exchanging half of the medium every 3 to 4 days, and thereafter, only the medium was exchanged without adding BMP4. Cell aggregates (spheroids) were formed by the 4th day of culture (FIG. 1). The stirring culture was continued in a spinner flask throughout the culture period. Although the hCG production was not confirmed until the 11th day of culture, the hCG production was confirmed after the 15th day of culture, and it was confirmed that the hCG production was continued even after the 60th day of culture (Table 2).
30 mL of an iPS cell medium (StemFit (registered trade name) AK02N: Ajinomoto Co., Inc.) was dispensed into a 30 mL volume spinner flask (ABLE Corporation), and then iPS cells (1.1×10^7 cells/bottle) were seeded. The comparison was carried out between the level 1 in which BMP4 was not added at the start of culture but added on the 4th day of culture and the level 2 in which BMVP was added from the start of culture. BMP4 was added so that the concentration in the medium was 50 ng/mL in both the level 1 and the level 2. After the start of culture, half of the medium was exchanged every 3 to 4 days, and after the 18th day of culture, the medium was exchanged for both the level 1 and the level 2 with a medium to which BMP4 had not been added. By the 4th day of culture, cell aggregates (spheroids) were formed. Regarding the level 1 and the level 2, stirring culture was continued in a spinner flask from the initial stage of culture, and the hCG production was checked. In a case where BMP4 is added from the start of culture (the level 2), the hCG production is started earlier; however, the hCG production also stops earlier. On the other hand, in a case where BMP4 is added after the 4th day of culture (the level 1), the hCG production is slightly delayed; however, it continued for a long time.

iPS cells [2] = assay: Three-dimensional suspension culture with BMP4, hCG quantified by i-STAT cartridge Total β-hCG; assay type: cell-based, human
Experimental: In the i-STAT cartridge Total β-hCG, about 17 μL of the culture supernatant was sampled, injected into the reagent cartridge, and inserted into the single-purpose analyzer.
On the other hand, three-dimensional suspension culture was started at the same time using the same iPS cells used in the two-dimensional culture adhesion culture. 30 mL of an iPS cell medium (StemFit (registered trade name) AK02N: Ajinomoto Co., Inc.) was dispensed into a 30 mL volume spinner flask (ABLE Corporation), and then iPS cells (1.3×10^6 cells/mL) were seeded. In the same manner as in the two-dimensional adhesion culture, BMP4 was not added at the start of culture, but a medium to which a solution containing 50 μg/mL BMP4 (R&D Systems Inc.) was added at the same proportion as that used in the two-dimensional adhesion culture was used after the 4th day of culture. After the start of culture, the addition of BMP4 to the medium was continued until the 14th day of culture while the medium was exchanged every 3 to 4 days, and thereafter, a medium to which BMP4 had not been added was used. In three-dimensional suspension culture, stirring culture was continued in a spinner flask throughout the culture period. While continuing the two-dimensional adhesion culture and the three-dimensional suspension culture, the culture supernatant was appropriately sampled after the 7th day of culture, and the amount of hCG produced was quantified using the i-STAT cartridge Total β-hCG. Since there are differences in the number of cells that can be seeded at the start of culture and the adding amount of medium between the two-dimensional culture and the three-dimensional culture, there are differences in the hCG concentration and the total hCG production in the culture supernatant, and thus it is not possible to simply compare them. For this reason, the hCG quantification value on the 7th day of culture after the start of differentiation induction into the placenta was set to 100, and the ratio of the hCG quantification value on the subsequent culture measurement day to the hCG quantification value on the 7th day of culture was calculated. That is, in a case where the hCG quantification value on the 7th day is set to 100 in each of the two-dimensional and three-dimensional culture forms, the subsequent changes after the 7th day in the hCG production amount are shown in FIG. 2. It was confirmed that in the two-dimensional culture, the decrease in hCG production amount is particularly remarkable after the 15th day of culture, whereas in the three-dimensional culture, the hCG continues to be produced after the 15th day, and even on the 25th day of culture, 10 times or more of the hCG production is maintained as compared with the 7th day of culture.

[3] = Three-dimensional culture, day 10
[4] = Three-dimensional culture, day 14
[5] = Three-dimensional culture, day 17
[6] = Three-dimensional culture, day 19
[7] = Three-dimensional culture, day 21
[8] = Three-dimensional culture, day 25

B1: BMP4: bone morphogenetic protein BMP4 (R&D Systems Inc.), added to iPS cell medium at 50 ng/mL to induce differentiation (protein, UniProt P12644 293-408, looked up)
Bone morphogenetic protein 4: SPKHHSQRARKKNKNCRRHSLYVDFSDVGWNDWIVAPPGYQAFYCHGDCPFPLADHLNSTNHAIVQTLVNSVNSSIPKACCVPTELSAISMLYLDEYDKVVLKNYQEMVVEGCGCR
With B1 the hCG production (iPS cells [1]; BMP4 50 ng/mL day 4 to 18, day 15) was “+ (a line equal to or more blue-colored than the control line was visually observed on the determination line, it was judged as positive (+))”, the hCG production (iPS cells [1]; BMP4 50 ng/mL day 4 to 18, day 39) was “+ (a line equal to or more blue-colored than the control line was visually observed on the determination line, it was judged as positive (+))” and the hCG production (iPS cells [1]; BMP4 50 ng/mL day 4 to 18, day 53) was “+ (a line equal to or more blue-colored than the control line was visually observed on the determination line, it was judged as positive (+))”. For the same molecule, the hCG production (iPS cells [1]; BMP4 50 ng/mL day 4 to 18, day 67) was “+ (a line equal to or more blue-colored than the control line was visually observed on the determination line, it was judged as positive (+))”, the HCG production (iPS cells [1]; level 1: BMP4 50 ng/mL added from day 4, spinner flask, day 8) was “− (the line was not visually observed on the determination line, it was determined to be negative (−))” and the HCG production (iPS cells [1]; level 1: BMP4 added from day 4, day 11) was “− (the line was not visually observed on the determination line, it was determined to be negative (−))”. The HCG production (iPS cells [1]; level 1: BMP4 added from day 4, day 14) was “+/− (a line that was less blue-colored than the control line but was visible was visually observed on the determination line, it was determined to be (+/−))”, the HCG production (iPS cells [1]; level 1: BMP4 added from day 4, day 18) was “+ (a line equal to or more blue-colored than the control line was visually observed on the determination line, it was judged as positive (+))” and the HCG production (iPS cells [1]; level 1: BMP4 added from day 4, day 21) was “+ (a line equal to or more blue-colored than the control line was visually observed on the determination line, it was judged as positive (+))”. For the same molecule, the HCG production (iPS cells [1]; level 1: BMP4 added from day 4, day 25) was “+ (a line equal to or more blue-colored than the control line was visually observed on the determination line, it was judged as positive (+))”, the HCG production (iPS cells [1]; level 1: BMP4 added from day 4, day 28) was “+ (a line equal to or more blue-colored than the control line was visually observed on the determination line, it was judged as positive (+))” and the HCG production (iPS cells [1]; level 1: BMP4 added from day 4, day 32) was “+ (a line equal to or more blue-colored than the control line was visually observed on the determination line, it was judged as positive (+))”. For the same molecule, the HCG production (iPS cells [1]; level 2: BMP4 50 ng/mL added from start of culture, spinner flask, day 8) was “+ (a line equal to or more blue-colored than the control line was visually observed on the determination line, it was judged as positive (+))”, the HCG production (iPS cells [1]; level 2: BMP4 added from start of culture, day 11) was “+ (a line equal to or more blue-colored than the control line was visually observed on the determination line, it was judged as positive (+))” and the HCG production (iPS cells [1]; level 2: BMP4 added from start of culture, day 14) was “+ (a line equal to or more blue-colored than the control line was visually observed on the determination line, it was judged as positive (+))”. For the same molecule, the HCG production (iPS cells [1]; level 2: BMP4 added from start of culture, day 18) was “+ (a line equal to or more blue-colored than the control line was visually observed on the determination line, it was judged as positive (+))”, the HCG production (iPS cells [1]; level 2: BMP4 added from start of culture, day 21) was “+ (a line equal to or more blue-colored than the control line was visually observed on the determination line, it was judged as positive (+))” and the HCG production (iPS cells [1]; level 2: BMP4 added from start of culture, day 25) was “+/− (a line that was less blue-colored than the control line but was visible was visually observed on the determination line, it was determined to be (+/−))”. For the same molecule, the HCG production (iPS cells [1]; level 2: BMP4 added from start of culture, day 28) was “− (the line was not visually observed on the determination line, it was determined to be negative (−))”, the HCG production (iPS cells [1]; level 2: BMP4 added from start of culture, day 32) was “− (the line was not visually observed on the determination line, it was determined to be negative (−))” and the hCG production (iPS cells [2]; Three-dimensional culture, BMP4 day 4 to 14, day 7) was 1.6 IU. The “hCG* production (hCG production on each of culture days/hCG production amount on 7th day) × 100” value (iPS cells [2]; Three-dimensional culture, day 7) was 100 AU, the hCG production (iPS cells [2]; [3]) was 61 IU and the “hCG* production (relative to 7th day × 100)” value (iPS cells [2]; [3]) was 3,936 AU. The hCG production (iPS cells [2]; [4]) was 79 IU, the “hCG* production (relative to 7th day × 100)” value (iPS cells [2]; [4]) was 5,044 AU and the hCG production (iPS cells [2]; [5]) was 120 IU. The “hCG* production (relative to 7th day × 100)” value (iPS cells [2]; [5]) was 7,692 AU, the hCG production (iPS cells [2]; [6]) was 120 IU and the “hCG* production (relative to 7th day × 100)” value (iPS cells [2]; [6]) was 7,692 AU. The hCG production (iPS cells [2]; [7]) was 54 IU, the “hCG* production (relative to 7th day × 100)” value (iPS cells [2]; [7]) was 3,465 AU and the hCG production (iPS cells [2]; [8]) was 23 IU. For the same molecule, the “hCG* production (relative to 7th day × 100)” value (iPS cells [2]; [8]) was 1,498 AU and the “hCG production on 25th day as compared with the 7th day of culture” value (iPS cells [2]; three-dimensional culture) was ≥ 10 times.
